Data on one molecule can be found in patent publication US20230390371A1, “ANTI-TUMOR IMMUNITY INDUCES THE PRESENTATION OF ABERRANT PEPTIDES” (STICHTING HET NEDERLANDS KANKER INSTITUUT-ANTONI VAN …, priority 2020, published 2023).

This assay relates to MD55A3 melanoma cells. The experiment in a line: V5-ATF4(1-63)-His frameshift reporter, His-tag pulldown and V5-tag immunoblotting. The note with it: IFNγ treatment vs control, MD55A3 cells. It counts as cell-based, human. The source says: FIG. 3: W-Bumps are associated with disordered out-of-frame peptides, and shortage in tryptophan leads to frameshifting events. • (a) Bar-plots depicting total occurrences of alpha-helices, beta-sheets and turns for tryptophan-containing peptide sequences corresponding to W-Bumps (left) and all remaining peptide sequences (middle), and the difference in percentages (right). […] Tryptophan shortage, on the other hand, can lead to stalling on the tryptophan codon (bottom left panel), or could in theory induce frameshifting events, leading to aberrant peptide production (lower right panel). Since secondary structure of growing polypeptide chains is attained in the lower tunnel of the ribosome, the loss of an a-helical secondary structure in this tunnel could hamper ribosomal progression. (c) Line-plots depicting the probability of disorderedness of peptide sequences. The position of the tryptophan is indicated by the dashed line. […] The green line represents the average probability of disorderedness of all peptides (‘All tryptophan codons’, n=36508). A group of outlier candidates that show relatively ordered out-of-frame peptide sequences were selected for comparisons (‘Selected tryptophan codons’, n=94, red). (d) Line-plots depicting mean frequency of RPFs at single nucleotide resolution across all tryptophans (green) and the selected outlier set (red) from panel 3c. […]

B1: IFNγ: interferon gamma (PeproTech), used at 250 U/mL (protein, UniProt P01579 24-161, looked up)
Interferon gamma: QDPYVKEAENLKKYFNAGHSDVADNGTLFLGILKNWKEESDRKIMQSQIVSFYFKLFKNFKDDQSIQKSVETIKEDMNVKFFNSNKKKRDDFEKLTNYSVTDLNVQRKAIHELIQVMAELSPAAKTGKRKRSQMLFRG
Regarding B1, the “His-tag pulldown of +1 and +2 reporter proteins (frameshifting events)” value is reported as “partially pulled down”.
